Test results from patent US20240239915A1 (Zymeworks, published 2024).
Read-outs that look alike come from different tables or passages of the source.

How the values were obtained:
[1] = target: T1, Recombinant Human Fc gamma RIIIB/CD16b Protein (R&D Systems), His-tagged (human, UniProt O75015 20-208); experiment: SPR (Biacore T200); receptor immobilized directly on CM5 chip, antibody as analyte at 4.7 µM
T1 construct: also called human FcγRIIIb; hFcγRIIIb
T1 chain: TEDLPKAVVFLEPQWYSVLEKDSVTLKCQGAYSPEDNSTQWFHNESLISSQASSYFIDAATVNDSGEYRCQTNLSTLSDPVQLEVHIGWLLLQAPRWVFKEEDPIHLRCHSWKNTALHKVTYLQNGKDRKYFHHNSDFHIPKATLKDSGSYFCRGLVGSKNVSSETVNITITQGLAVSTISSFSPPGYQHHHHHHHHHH

[2] = target: T2, human FcRn (human neonatal Fc receptor large subunit p51 and beta2-microglobulin), biotinylated (human, UniProt P55899 24-297; P61769 21-119, biotinylated (site not stated)); experiment: BLI (Octet RED384), biotinylated FcRn on streptavidin biosensor, binding at pH 6.0, dissociation at pH 7.4
[3] = target: T2, human FcRn (human neonatal Fc receptor …); experiment: BLI (Octet RED384), biotinylated FcRn on streptavidin biosensor, binding and dissociation at pH 6.0
[4] = target: T3, Recombinant Cynomolgus Monkey Fc gamma RI/CD64 Protein, CF (R&D Systems), His-tagged (cynomolgus, UniProt P12314 11-288 (human entry)); experiment: SPR (Biacore T200); His-tagged receptor captured on anti-His antibody chip, antibody as analyte at 4.7 µM
T3 construct: also called cynomolgus FcγRI; cFcγRI
T3 chain: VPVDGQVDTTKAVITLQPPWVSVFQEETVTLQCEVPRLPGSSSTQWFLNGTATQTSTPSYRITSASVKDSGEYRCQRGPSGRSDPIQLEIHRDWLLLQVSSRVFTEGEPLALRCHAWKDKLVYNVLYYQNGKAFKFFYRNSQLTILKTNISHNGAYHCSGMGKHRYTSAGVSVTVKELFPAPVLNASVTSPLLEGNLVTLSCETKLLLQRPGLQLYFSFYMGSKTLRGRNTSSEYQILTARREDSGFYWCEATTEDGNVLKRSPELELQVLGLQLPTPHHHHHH

[5] = target: T4, Recombinant Cynomolgus Fc gamma RIII/CD16 Protein (R&D Systems), His-tagged (cynomolgus, UniProt Q8SPW2 17-208); experiment: SPR (Biacore T200); receptor immobilized directly on CM5 chip, antibody as analyte at 4.7 µM
T4 construct: also called cynomolgus FcγRIII; cFcγRIII
T4 chain: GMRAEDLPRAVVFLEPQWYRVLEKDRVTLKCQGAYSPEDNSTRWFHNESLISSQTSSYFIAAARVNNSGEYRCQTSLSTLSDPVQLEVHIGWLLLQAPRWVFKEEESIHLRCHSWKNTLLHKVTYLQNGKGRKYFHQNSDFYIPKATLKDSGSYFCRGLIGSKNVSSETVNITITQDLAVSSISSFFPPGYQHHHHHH

[6] = target: T5, Recombinant Cynomolgus Fc gamma RIIA/CD32a Protein (R&D Systems), His-tagged (cynomolgus); experiment: as above
T5 construct: also called cynomolgus FcγRIIa; cFcγRIIa
T5 chain: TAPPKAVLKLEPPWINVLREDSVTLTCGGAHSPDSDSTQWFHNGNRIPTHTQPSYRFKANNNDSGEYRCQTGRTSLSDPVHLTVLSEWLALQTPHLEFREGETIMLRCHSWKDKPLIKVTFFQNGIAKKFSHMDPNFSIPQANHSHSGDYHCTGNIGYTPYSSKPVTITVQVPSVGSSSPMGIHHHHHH

[7] = target: T6, Recombinant Cynomolgus Fc gamma RIIB protein (R&D Systems), His-tagged (cynomolgus); experiment: as above
T6 construct: also called cynomolgus FcγRIIb; cFcγRIIb
T6 chain: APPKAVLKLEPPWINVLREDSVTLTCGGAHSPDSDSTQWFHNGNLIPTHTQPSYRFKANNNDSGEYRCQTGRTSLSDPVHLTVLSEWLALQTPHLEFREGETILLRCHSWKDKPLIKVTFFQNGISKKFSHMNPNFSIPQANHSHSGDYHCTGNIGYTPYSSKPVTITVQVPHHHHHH

[8] = target: T7, Recombinant Human Fc gamma RIIA/CD32a (H167) Protein (R&D Systems), His-tagged (human, UniProt P12318 34-218); experiment: as above
T7 construct: also called human FcγRIIa (H167); hFcγRIIa (H167)
T7 sequence: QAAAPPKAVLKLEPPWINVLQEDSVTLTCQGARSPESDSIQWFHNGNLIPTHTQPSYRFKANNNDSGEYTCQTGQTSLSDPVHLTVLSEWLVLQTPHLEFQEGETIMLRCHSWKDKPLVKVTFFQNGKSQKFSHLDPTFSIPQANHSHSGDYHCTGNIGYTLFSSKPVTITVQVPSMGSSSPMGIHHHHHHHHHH

[9] = target: T8, Recombinant Human Fc gamma RIIIA/CD16a protein (R&D Systems), His-tagged (human, UniProt P08637 17-208); experiment: as above
T8 construct: also called human FcγRIIIa; hFcγRIIIa

[10] = target: T1, Recombinant Human Fc gamma RIIIB/CD16b …; experiment: as above
[11] = target: T9, Recombinant Human Fc gamma RIIB/C (CD32b/c) Protein (R&D Systems), His-tagged (human, UniProt P31994 46-217); experiment: as above
T9 construct: also called human FcγRIIb/c; hFcγRIIb/c
T9 sequence: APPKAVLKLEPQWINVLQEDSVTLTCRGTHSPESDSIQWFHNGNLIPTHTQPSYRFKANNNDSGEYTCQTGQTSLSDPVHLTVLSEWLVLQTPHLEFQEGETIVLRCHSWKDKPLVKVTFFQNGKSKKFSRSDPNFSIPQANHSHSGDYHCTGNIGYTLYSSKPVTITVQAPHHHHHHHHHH

[12] = target: T10, Recombinant Human Fc gamma RIIIA/CD16a (V176F) Protein (R&D Systems), His-tagged (human, UniProt P08637 17-208); experiment: as above
T10 construct: no further substitution applied; also called human FcγRIIIa (V176F); hFcγRIIIa (V176F)

[13] = target: T7, Recombinant Human Fc gamma RIIA/CD32a …; experiment: as above; remark: listed apart in the source
[14] = target: T8, Recombinant Human Fc gamma RIIIA/CD16a …; experiment: as above; remark: listed apart in the source
[15] = target: T1, Recombinant Human Fc gamma RIIIB/CD16b …; experiment: as above
[16] = target: T9, Recombinant Human Fc gamma RIIB/C …; experiment: as above; remark: listed apart in the source
[17] = target: T10, Recombinant Human Fc gamma RIIIA/CD16a …; experiment: as above; remark: listed apart in the source
[18] = target: T4, Recombinant Cynomolgus Fc gamma …; experiment: as above
[19] = target: T5, Recombinant Cynomolgus Fc gamma …; experiment: as above
[20] = target: T6, Recombinant Cynomolgus Fc gamma RIIB …; experiment: as above

T10 sequence (P08637 other isoform, or with tags, fused parts or gaps V176F V176F): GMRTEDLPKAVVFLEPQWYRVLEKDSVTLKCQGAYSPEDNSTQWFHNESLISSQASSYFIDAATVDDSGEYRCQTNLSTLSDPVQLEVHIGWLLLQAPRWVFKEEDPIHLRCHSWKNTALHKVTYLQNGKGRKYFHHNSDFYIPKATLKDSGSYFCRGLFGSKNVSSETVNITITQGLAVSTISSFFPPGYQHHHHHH
T8 sequence (P08637 other isoform, or with tags, fused parts or gaps): as the sequence (P08637 other isoform, or with tags, fused parts or gaps V176F V176F) above, with F160V counted along it
T2 sequence (P55899 24-297 limits assumed, chain 1 of 2): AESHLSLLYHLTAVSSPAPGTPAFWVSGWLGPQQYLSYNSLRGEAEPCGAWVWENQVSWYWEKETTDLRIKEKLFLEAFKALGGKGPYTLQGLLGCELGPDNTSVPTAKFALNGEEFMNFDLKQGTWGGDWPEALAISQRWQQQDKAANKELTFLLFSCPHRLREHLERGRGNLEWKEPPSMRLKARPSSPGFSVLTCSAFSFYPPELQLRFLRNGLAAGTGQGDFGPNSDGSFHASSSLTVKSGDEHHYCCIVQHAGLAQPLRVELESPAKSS
T2 sequence (P61769 21-119 limits assumed, chain 2 of 2): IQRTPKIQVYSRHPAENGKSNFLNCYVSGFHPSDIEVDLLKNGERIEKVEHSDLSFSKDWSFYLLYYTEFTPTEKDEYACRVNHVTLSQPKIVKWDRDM

B1: LALA variant of the anti-LPS antibody O11-1111 (IgG1) (antibody)
heavy: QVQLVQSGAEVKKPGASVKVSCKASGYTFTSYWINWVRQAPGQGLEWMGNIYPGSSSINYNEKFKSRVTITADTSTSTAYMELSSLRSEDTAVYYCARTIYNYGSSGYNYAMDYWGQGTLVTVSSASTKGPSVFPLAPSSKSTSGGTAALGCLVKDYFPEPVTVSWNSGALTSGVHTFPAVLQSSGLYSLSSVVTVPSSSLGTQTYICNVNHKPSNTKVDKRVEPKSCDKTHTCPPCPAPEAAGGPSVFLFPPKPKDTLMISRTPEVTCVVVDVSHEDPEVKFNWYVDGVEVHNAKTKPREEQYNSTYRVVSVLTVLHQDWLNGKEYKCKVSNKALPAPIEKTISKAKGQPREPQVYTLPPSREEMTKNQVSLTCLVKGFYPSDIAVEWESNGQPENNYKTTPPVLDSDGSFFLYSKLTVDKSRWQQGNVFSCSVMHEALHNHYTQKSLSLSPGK
light: DIVMTQSPDSLAVSLGERATINCKASENVGNSVSWYQQKPGQPPKLLIYGASNRYTGVPDRFSGSGSGTDFTLTISSLQAEDVAVYYCGQSYSYPYTFGQGTKVEIKRTVAAPSVFIFPPSDEQLKSGTASVVCLLNNFYPREAKVQWKVDNALQSGNSQESVTEQDSKDSTYSLSSTLTLSKADYEKHKVYACEVTHQGLSSPVTKSFNRGEC
notes: LALA substitutions in EU numbering; also called Anti-LPS Antibody LALA
[1]
  binding response (RU): -1.4 RU

B2: L234A/L235A/D265G/P329A (LALA-DGPA) variant of IgG1 WT of the anti-EGFR antibody panitumumab (antibody)
heavy: QVQLQESGPGLVKPSETLSLTCTVSGGSVSSGDYYWTWIRQSPGKGLEWIGHIYYSGNTNYNPSLKSRLTISIDTSKTQFSLKLSSVTAADTAIYYCVRDRVTGAFDIWGQGTMVTVSSASTKGPSVFPLAPSSKSTSGGTAALGCLVKDYFPEPVTVSWNSGALTSGVHTFPAVLQSSGLYSLSSVVTVPSSSLGTQTYICNVNHKPSNTKVDKRVEPKSCDKTHTCPPCPAPEAAGGPSVFLFPPKPKDTLMISRTPEVTCVVVGVSHEDPEVKFNWYVDGVEVHNAKTKPREEQYNSTYRVVSVLTVLHQDWLNGKEYKCKVSNKALAAPIEKTISKAKGQPREPQVYTLPPSREEMTKNQVSLTCLVKGFYPSDIAVEWESNGQPENNYKTTPPVLDSDGSFFLYSKLTVDKSRWQQGNVFSCSVMHEALHNHYTQKSLSLSPGK
light: not shown
notes: Positions are EU numbers
[2]
  koff: 2.3 s⁻¹
[3]
  Kd: 5 nM

B3: L234A/L235A/P329G (LALA-PG) variant of IgG1 WT of the anti-EGFR antibody panitumumab (antibody)
heavy: QVQLQESGPGLVKPSETLSLTCTVSGGSVSSGDYYWTWIRQSPGKGLEWIGHIYYSGNTNYNPSLKSRLTISIDTSKTQFSLKLSSVTAADTAIYYCVRDRVTGAFDIWGQGTMVTVSSASTKGPSVFPLAPSSKSTSGGTAALGCLVKDYFPEPVTVSWNSGALTSGVHTFPAVLQSSGLYSLSSVVTVPSSSLGTQTYICNVNHKPSNTKVDKRVEPKSCDKTHTCPPCPAPEAAGGPSVFLFPPKPKDTLMISRTPEVTCVVVDVSHEDPEVKFNWYVDGVEVHNAKTKPREEQYNSTYRVVSVLTVLHQDWLNGKEYKCKVSNKALGAPIEKTISKAKGQPREPQVYTLPPSREEMTKNQVSLTCLVKGFYPSDIAVEWESNGQPENNYKTTPPVLDSDGSFFLYSKLTVDKSRWQQGNVFSCSVMHEALHNHYTQKSLSLSPGK
light: not shown
notes: Mutations in both CH2 domains; positions are EU numbers
[4]
  binding response (RU): 1300 RU
[5]
  binding response (RU): 10 RU
[6]
  binding response (RU): 23 RU
[7]
  binding response (RU): 110 RU
[8]
  binding response (RU): 19 RU
[9]
  binding response (RU): -0.7 RU
[10]
  binding response (RU): -0.4 RU
[11]
  binding response (RU): 19 RU
[12]
  binding response (RU): -0.8 RU

B4: L234A/L235A/D265N (LALA-DN) variant of IgG1 WT of the anti-EGFR antibody panitumumab (antibody)
heavy: QVQLQESGPGLVKPSETLSLTCTVSGGSVSSGDYYWTWIRQSPGKGLEWIGHIYYSGNTNYNPSLKSRLTISIDTSKTQFSLKLSSVTAADTAIYYCVRDRVTGAFDIWGQGTMVTVSSASTKGPSVFPLAPSSKSTSGGTAALGCLVKDYFPEPVTVSWNSGALTSGVHTFPAVLQSSGLYSLSSVVTVPSSSLGTQTYICNVNHKPSNTKVDKRVEPKSCDKTHTCPPCPAPEAAGGPSVFLFPPKPKDTLMISRTPEVTCVVVNVSHEDPEVKFNWYVDGVEVHNAKTKPREEQYNSTYRVVSVLTVLHQDWLNGKEYKCKVSNKALPAPIEKTISKAKGQPREPQVYTLPPSREEMTKNQVSLTCLVKGFYPSDIAVEWESNGQPENNYKTTPPVLDSDGSFFLYSKLTVDKSRWQQGNVFSCSVMHEALHNHYTQKSLSLSPGK
light: not shown
notes: as for B3
[13]
  binding response (RU): 21 RU
[14]
  binding response (RU): -3.3 RU
[15]
  binding response (RU): -1 RU
[16]
  binding response (RU): 14 RU
[17]
  binding response (RU): -5 RU
[18]
  binding response (RU): 3.1 RU
[19]
  binding response (RU): 19 RU
[20]
  binding response (RU): 85 RU
